These substances were tested against IgG-CD4 fusion protein (human) (UniProt P01730) (assay: BLI).

Substance | Kd [nM]
recombinant gp120 of HIV-1 92UG037.8 (subtype A) (natural protein) | 2.56
recombinant consensus gp120 of HIV-1 CRF01_AE | 18.4
recombinant gp120 of HIV-1 JR-FL (subtype B) (natural protein) | 6.4
recombinant gp120 of HIV-1 93MW965.26 (subtype C) (natural protein) | 112
